Laboratory results as given in patent US8227408B2, “Leptin as an anti-amyloidogenic biologic and methods for delaying the onset and reducing Alzheimer's disease-like pathology” (Neurotez, Inc., priority 2005, dated 2012).

Legend:
[1] = tested on: Neuro2a cells stably transfected with hyg-sa134 (SEAP-APP); assay: Aβ production by Neuro2a cells stably transfected with hyg-sa134 (total Aβ in media, sandwich ELISA); format: cell-based, mouse
Procedure: (§1) Neuro2a (mouse neuroblastoma) stably transfected with hyg-sa134, a pcDNA3.1/Hygro plasmid (Invitrogen, CA) modified to express a fusion protein of secreted alkaline phosphatase (SEAP) and a fragment of APP consisting of the C-terminal 134 amino acids (“CAPP134”) (SEQ ID NO:10) were maintained in culture as described ([…]) in the presence of 400 μg/ml of hygromycin. SEQ ID NO: 11 is the DNA sequence of the entire hygsa134 vector, which was derived from the pcDNA3.1/Hygro vector by genetic manipulation to insert the DNA sequences for SEAP and CAPP134. The SEAP-CAPP cDNA insert from hyg-sa134 was also subcloned into an adenoviral vector using the Adeno Vator system (Qbiogene, Calif.). The DNA sequence for SEAP (corresponding to nucleotides 981-2441 of hyg-sa134) (SEQ ID NO: 9) is located 5′ to the DNA sequence (SEQ ID NO: 12) coding for CAPP134 (SEQ ID NO: 10).
(§2) SY5Y and hyg-sa134-Neuro2a cells were treated at 80% confluency (see below). Primary neural cultures from mouse embryos were allowed to grow for 6-12 days following plating and prior to viral infection and treatments.
About 5 μg/ml or about 10 μg/ml water-soluble cholesterol was added to cultures for 2 or 5 hours. Water soluble cholesterol (Sigma-Aldrich, MO) is a solution made of cholesterol balanced with cyclodextrin CDX (40 mg cholesterol per gr CDX). For comparison, cultures were treated with the equivalent amount of the resin alone, which leads to depletion of cholesterol in the cultures (Simons et al., Proc Natl Acad Sci USA. 95:6460-4 (1998)).
(§3) About 100 ng/ml or about 400 ng/ml leptin (Harbor-UCLA, CA), was added in cell culture medium for 2 or 5 h. Cells were approximately 80% confluent at the time of treatment. Peptide YY (3-36) (Phoenix Pharmaceuticals, Inc., CA), and CNTF (Sigma-Aldrich, Mo.) were added at about 25 μM or 150 μM for the same incubation periods. TOFA, etomoxir (Research Biochemicals International, MA) and cerulenin (Sigma-Aldrich, Mo.) were used as described below.
(§4) For the determination of Aβ peptide several methodologies also were used. SY5Y cells in culture were metabolically labeled with ^35S-[Met] as described (Figueiredo-Pereira et al. J Neurochem. 72:1417-22 (1999)), followed by immunoprecipitation, resolution of the immunoprecipitates on SDS-PAGE, autoradiography, and densitometric analysis of the autoradiogram. Neuro2a cells were stably transfected with hyg-sa134 (K. Sambamurti, S. Carolina Medical Center, SC) and Aβ40 (SEQ ID NO: 4) plus Aβ42 (SEQ ID NO: 5) plus Aβ43 (SEQ ID NO: 6) (Total Aβ) in the medium then was quantified by sandwich ELISAs developed with 4G8 and 6 ε10 monoclonal antibodies (Signet, Mass.) as described (Figueiredo-Pereira et al., J Neurochem. 72:1417-22 (1999)). Commercially available ELISA kits (KMI Diagnostics, MN) were used for the separate determination of Aβ40 (SEQ ID NO:4) and Aβ42/43 (SEQ ID NO:5/SEQ ID NO:6) in formic acid extracts of mice brains. Flotillin was detected using monoclonal anti-flotillin-1 antibodies (BD Biosciences, CA). Actin was detected using monoclonal anti-actin antibodies (Research Diagnostics, Inc, NJ).
Human (SYSY) or mouse neuroblastoma cell-lines (Neuro2a) commonly are used to study amyloid β metabolism in vitro. Neuro2a cells are stably transfected with hyg-sa134 (SEQ ID NO: 11), a plasmid driving the expression of a recombinant fusion protein containing the human C-terminal fragment of APP of about 134 amino acids, CAPP134 (SEQ ID NO: 10). Here, 5Y5Y or Neuro2a cultures were treated for 2 or 5 h with about 100 ng/ml or about 400 ng/ml leptin (FIG. 4a, 4b). Similarly, primary neurons from embryonic rat brain, infected with an adenovirus to direct the expression of CAPP134 (SEQ ID NO:10) also were treated according to the same regimen. […]

SY5Y cells = assay: Aβ production by SY5Y cells; format: cell-based, human; conditions: total Aβ in conditioned media, 5 h; concentration (TOFA 200 μM, cerulenin 200 μM, etomoxir 40 μM, peptide YY (3-36) 25 μM, CNTF 25 μM, leptin 400 ng/ml); mean ± SEM; NS = non-significant
Source text: (§5) Cell cultures, Treatments, Antibodies and Immunoassays. SY5Y cells (human neuroblastoma) were maintained in culture as described (Johnsingh et al., FEBS Lett. 465:53-8 (2000)). Primary neural cultures were obtained from ε16 rat embryonic cortex, as described (Shimoda et al., 1992. Brain Res. 586:319-31 (1992)). These were either grown as mixed cultures (Johnsingh et al., FEBS Lett. 465:53-8 (2000)) or grown under conditions that favor the isolation and proliferation of astrocytes (Takeshima et al., J Neurosci. 14:4769-79 (1994)).
as §2, §3, §4
(§6) Human (SYSY) or mouse neuroblastoma cell-lines (Neuro2a) commonly are used to study amyloid β metabolism in vitro. Neuro2a cells are stably transfected with hyg-sa134 (SEQ ID NO: 11), a plasmid driving the expression of a recombinant fusion protein containing the human C-terminal fragment of APP of about 134 amino acids, CAPP134 (SEQ ID NO: 10). Here, 5Y5Y or Neuro2a cultures were treated for 2 or 5 h with about 100 ng/ml or about 400 ng/ml leptin (FIG. 4a, 4b). Similarly, primary neurons from embryonic rat brain, infected with an adenovirus to direct the expression of CAPP134 (SEQ ID NO:10) also were treated according to the same regimen.

[2] = tested on: primary embryonic rat neurons infected with adenovirus; assay: Aβ production by primary embryonic rat neurons infected with adenovirus (SEAP-APP); format: cell-based; conditions: total Aβ in conditioned media, 5 h; concentration (TOFA 200 μM, cerulenin 200 μM, etomoxir 40 μM, peptide YY (3-36) 25 μM, CNTF 25 μM, leptin 400 ng/ml); mean ± SEM; NS = non-significant
Source text: as §5, §1, §2, §6

B1: Leptin: peptide hormone controlling adaptive metabolic mechanisms to energy availability; leptin (Harbor-UCLA) in vitro, recombinant murine leptin in mice (protein, UniProt P41160 22-167, looked up)
Leptin: VPIQKVQDDTKTLIKTIVTRINDISHTQSVSAKQRVTGLDFIPGLHPILSLSKMDQTLAVYQQVLTSLPSQNVLQIANDLENLRDLLHLLAFSKSCSLPQTSGLQKPESLDGVLEASLYSTEVVALSRLQGSLQDILQQLDVSPEC
Aβ production / levels of Aβ in the media (in words) ([1]; 2 or 5 h treatment): dose- and time-dependent decrease
levels of Aβ detected in the media (percentage of corresponding controls), leptin co-administered with cholesterol ([1]; 5 h, highest concentrations of leptin, co-administered with cholesterol, FIG. 4b): 150±4%
Neuro2a/SEAP-APP Aβ(% control) ([1]; total Aβ in conditioned media, 5 h, concentration (TOFA 200 μM, cerulenin 200 μM, etomoxir 40 μM, peptide YY (3-36) 25 μM, CNTF 25 μM, leptin 400 ng/ml), mean ± SEM, 4 experiments, NS = non-significant): 56 ± 5 % control
SY5Y Aβ (% control) (SY5Y cells): 38 ± 7 % control
Neurons/SEAPP-APP Aβ (% control) [2]: 35 ± 4 % control
